Data as given in US20180318386A1, “PEPTIDES AND METHODS OF TREATING ENDOMETRIOSIS USING THE SAME” (BIOINCEPT, LLC, priority 2014, published 2018).

Experiments:
[1] = target: Actin, cytoplasmic 1 (human) (UniProt P60709); test: PIF affinity resin pull-down, CD4+ cell lysate, LC-MS/MS count
[2] = target: Calmodulin (human) (UniProt P0DP23); test: as above
[3] = target: Hepatoma-derived growth factor (human) (UniProt P51858); test: as above
[4] = target: Histone H2A type 1-B/E (human) (UniProt P04908); test: as above
[5] = target: Isoform 11 of Titin (human) (UniProt Q8WZ42); test: as above
[6] = target: Nucleolin (human) (UniProt P19338); test: as above
[7] = target: Thrombin light chain (human) (UniProt P00734); test: as above
[8] = target: 14-3-3 protein zeta/delta (human) (UniProt P63104); test: PIF affinity resin pull-down, CD14+ cell lysate, LC-MS/MS count
[9] = target: Actin, cytoplasmic 2 (human) (UniProt P63261); test: as above
[10] = target: Calreticulin (human) (UniProt P27797); test: as above
[11] = target: Hornerin (human) (UniProt Q86YZ3); test: as above
[12] = target: Isoform 1 of Vinculin (human) (UniProt P18206); test: as above
[13] = target: Isoform 2 of Ras suppressor protein 1 (human) (UniProt Q15404); test: as above
[14] = target: Isoform H14 of Myeloperoxidase (human) (UniProt P05164); test: as above
[15] = target: Isoform SV of 14-3-3 protein epsilon (human) (UniProt P62258); test: as above
[16] = target: Isoform Short of 14-3-3 protein beta/alpha (human) (UniProt P31946); test: as above
[17] = target: Lymphocyte-specific protein 1 (human) (UniProt P33241); test: as above
[18] = target: Matrin-3 (human) (UniProt A8MXP9); test: as above
[19] = target: Myeloid cell nuclear differentiation antigen (human) (UniProt P41218); test: as above
[20] = target: Protein S100-A8 (human) (UniProt P05109); test: as above
[21] = target: Thrombospondin-1 (human) (UniProt P07996); test: as above
[22] = target: Thymosin alpha-1 (human) (UniProt P06454); test: as above
[23] = target: Tropomyosin alpha-4 chain (human) (UniProt P67936); test: as above
[24] = target: Vimentin (human) (UniProt P08670); test: as above
Vimentin (human), sequence (P08670 2-466 limits assumed): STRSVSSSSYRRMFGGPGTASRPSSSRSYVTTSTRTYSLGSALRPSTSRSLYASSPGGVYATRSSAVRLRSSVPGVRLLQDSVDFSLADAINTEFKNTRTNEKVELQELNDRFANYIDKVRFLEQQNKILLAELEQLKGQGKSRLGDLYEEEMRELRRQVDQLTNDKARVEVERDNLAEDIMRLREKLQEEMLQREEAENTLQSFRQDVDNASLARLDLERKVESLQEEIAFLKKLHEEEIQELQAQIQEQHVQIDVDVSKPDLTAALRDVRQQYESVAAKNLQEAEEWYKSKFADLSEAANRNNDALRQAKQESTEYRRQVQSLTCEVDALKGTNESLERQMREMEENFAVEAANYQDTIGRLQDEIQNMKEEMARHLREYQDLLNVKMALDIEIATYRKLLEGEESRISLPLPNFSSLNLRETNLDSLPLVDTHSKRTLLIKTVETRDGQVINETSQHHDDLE

Isoform 2 of Ras suppressor protein 1 (human), sequence (Q15404 54-277 limits assumed): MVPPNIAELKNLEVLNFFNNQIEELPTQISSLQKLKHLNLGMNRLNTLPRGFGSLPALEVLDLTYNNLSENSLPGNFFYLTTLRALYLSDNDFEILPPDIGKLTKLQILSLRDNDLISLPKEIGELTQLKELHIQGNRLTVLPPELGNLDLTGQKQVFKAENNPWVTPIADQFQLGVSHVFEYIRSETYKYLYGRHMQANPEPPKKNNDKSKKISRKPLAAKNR
14-3-3 protein zeta/delta (human), sequence (P63104 whole entry, stated change not applied): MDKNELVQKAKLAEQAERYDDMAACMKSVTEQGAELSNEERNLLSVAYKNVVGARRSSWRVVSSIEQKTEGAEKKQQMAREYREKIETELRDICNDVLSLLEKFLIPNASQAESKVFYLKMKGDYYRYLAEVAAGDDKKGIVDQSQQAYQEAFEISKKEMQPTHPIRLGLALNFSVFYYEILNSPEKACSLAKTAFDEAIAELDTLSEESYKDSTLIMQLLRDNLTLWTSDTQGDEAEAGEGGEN
Isoform 1 of Vinculin (human), sequence (P18206 other isoform, or with tags, fused parts or gaps limits assumed): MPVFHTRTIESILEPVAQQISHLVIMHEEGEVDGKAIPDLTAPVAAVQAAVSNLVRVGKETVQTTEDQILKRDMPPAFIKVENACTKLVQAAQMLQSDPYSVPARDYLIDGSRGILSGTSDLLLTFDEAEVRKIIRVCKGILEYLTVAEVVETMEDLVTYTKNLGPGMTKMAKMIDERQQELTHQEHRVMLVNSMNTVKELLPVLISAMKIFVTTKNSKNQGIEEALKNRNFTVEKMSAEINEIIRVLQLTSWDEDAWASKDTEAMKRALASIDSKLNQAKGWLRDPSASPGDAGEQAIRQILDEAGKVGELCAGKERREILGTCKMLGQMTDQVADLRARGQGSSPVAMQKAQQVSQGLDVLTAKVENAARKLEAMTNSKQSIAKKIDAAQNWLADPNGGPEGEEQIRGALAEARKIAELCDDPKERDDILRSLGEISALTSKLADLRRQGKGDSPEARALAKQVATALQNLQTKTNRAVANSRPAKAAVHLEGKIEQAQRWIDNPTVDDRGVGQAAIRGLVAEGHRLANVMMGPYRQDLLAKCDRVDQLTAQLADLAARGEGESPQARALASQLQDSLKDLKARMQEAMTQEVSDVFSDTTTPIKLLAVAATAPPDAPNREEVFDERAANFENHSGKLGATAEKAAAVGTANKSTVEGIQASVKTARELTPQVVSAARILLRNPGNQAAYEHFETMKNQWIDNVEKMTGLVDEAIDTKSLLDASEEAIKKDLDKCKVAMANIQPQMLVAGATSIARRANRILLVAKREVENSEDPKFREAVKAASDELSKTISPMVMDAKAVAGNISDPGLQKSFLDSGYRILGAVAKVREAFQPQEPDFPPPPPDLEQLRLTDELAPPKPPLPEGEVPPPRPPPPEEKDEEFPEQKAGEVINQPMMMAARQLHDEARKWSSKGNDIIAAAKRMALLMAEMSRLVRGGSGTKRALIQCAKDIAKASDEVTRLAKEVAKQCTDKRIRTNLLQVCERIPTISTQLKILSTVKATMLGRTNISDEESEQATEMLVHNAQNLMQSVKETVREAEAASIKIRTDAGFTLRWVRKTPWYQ
Lymphocyte-specific protein 1 (human), sequence (P33241 whole entry): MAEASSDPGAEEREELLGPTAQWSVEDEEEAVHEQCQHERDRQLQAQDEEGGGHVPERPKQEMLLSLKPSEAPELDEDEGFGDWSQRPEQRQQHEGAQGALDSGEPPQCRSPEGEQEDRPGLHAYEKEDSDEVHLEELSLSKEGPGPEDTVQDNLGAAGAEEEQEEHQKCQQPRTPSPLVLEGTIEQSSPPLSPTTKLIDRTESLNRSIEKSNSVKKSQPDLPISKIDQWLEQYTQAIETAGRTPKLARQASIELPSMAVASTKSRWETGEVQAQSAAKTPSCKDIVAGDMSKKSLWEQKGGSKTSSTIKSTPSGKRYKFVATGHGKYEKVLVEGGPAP
Isoform Short of 14-3-3 protein beta/alpha (human), sequence (P31946 3-246 limits assumed): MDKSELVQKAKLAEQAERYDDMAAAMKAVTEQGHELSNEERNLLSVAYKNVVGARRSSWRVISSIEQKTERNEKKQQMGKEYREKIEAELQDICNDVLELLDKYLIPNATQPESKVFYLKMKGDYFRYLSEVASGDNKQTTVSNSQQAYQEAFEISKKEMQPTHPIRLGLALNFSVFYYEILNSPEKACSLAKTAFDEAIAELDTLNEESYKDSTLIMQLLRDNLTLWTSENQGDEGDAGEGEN
Thymosin alpha-1 (human), sequence (P06454 other isoform, or with tags, fused parts or gaps limits assumed): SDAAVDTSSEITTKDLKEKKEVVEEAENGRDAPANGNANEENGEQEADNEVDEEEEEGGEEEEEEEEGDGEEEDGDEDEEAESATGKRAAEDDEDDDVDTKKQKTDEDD
Hepatoma-derived growth factor (human), sequence (P51858 whole entry): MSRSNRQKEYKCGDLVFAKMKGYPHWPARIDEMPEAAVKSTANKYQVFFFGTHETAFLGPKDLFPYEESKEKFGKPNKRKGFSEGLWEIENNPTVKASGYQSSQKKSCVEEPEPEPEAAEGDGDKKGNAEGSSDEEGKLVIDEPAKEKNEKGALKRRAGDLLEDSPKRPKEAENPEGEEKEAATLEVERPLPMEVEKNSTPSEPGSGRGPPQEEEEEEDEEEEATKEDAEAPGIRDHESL
Isoform SV of 14-3-3 protein epsilon (human), sequence (P62258 23-255 limits assumed): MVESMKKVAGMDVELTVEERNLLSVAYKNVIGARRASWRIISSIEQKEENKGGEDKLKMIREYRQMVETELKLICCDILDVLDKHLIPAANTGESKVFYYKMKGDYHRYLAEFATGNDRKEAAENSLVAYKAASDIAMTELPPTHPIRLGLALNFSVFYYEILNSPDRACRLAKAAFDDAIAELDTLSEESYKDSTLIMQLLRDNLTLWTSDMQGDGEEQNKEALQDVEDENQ
Nucleolin (human), sequence (P19338 2-710 limits assumed): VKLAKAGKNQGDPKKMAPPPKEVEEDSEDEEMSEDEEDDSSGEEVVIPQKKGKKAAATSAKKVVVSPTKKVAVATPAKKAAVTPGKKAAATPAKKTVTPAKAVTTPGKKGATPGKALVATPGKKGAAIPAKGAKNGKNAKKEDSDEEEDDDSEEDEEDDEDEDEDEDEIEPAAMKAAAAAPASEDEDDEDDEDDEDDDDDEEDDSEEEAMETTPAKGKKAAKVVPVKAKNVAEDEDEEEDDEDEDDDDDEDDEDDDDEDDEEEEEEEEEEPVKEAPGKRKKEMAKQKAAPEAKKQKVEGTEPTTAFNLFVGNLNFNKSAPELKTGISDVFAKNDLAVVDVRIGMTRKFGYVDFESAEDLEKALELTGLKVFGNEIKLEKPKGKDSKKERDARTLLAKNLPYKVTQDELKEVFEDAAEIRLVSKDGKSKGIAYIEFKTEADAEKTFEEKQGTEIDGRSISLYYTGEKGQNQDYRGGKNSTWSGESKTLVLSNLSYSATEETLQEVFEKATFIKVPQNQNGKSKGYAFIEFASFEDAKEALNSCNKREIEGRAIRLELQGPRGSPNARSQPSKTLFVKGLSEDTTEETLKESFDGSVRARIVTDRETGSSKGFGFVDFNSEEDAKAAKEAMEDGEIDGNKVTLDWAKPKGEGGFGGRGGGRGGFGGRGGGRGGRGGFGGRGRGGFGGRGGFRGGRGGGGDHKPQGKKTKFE
Myeloid cell nuclear differentiation antigen (human), sequence (P41218 whole entry): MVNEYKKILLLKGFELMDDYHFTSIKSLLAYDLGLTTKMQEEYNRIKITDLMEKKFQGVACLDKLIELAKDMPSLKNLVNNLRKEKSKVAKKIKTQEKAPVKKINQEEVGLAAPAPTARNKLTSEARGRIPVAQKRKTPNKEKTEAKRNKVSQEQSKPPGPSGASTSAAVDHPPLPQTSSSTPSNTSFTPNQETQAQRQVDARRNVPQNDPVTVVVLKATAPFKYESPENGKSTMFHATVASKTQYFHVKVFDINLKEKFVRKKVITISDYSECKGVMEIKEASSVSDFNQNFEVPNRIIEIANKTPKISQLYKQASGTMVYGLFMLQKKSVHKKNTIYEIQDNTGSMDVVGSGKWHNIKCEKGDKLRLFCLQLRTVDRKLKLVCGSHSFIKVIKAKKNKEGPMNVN
Calreticulin (human), sequence (P27797 18-417 limits assumed): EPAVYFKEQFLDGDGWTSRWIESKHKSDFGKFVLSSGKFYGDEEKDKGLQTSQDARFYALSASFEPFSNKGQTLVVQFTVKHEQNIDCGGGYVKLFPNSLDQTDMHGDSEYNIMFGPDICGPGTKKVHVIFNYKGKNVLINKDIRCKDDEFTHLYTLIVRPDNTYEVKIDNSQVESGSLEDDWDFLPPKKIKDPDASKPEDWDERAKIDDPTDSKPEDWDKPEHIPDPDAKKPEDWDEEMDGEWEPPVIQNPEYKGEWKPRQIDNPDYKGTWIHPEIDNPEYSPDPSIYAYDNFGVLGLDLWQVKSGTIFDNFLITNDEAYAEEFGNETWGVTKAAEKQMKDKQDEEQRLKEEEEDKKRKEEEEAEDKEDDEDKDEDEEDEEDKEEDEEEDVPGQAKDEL
Protein S100-A8 (human), sequence (P05109 whole entry): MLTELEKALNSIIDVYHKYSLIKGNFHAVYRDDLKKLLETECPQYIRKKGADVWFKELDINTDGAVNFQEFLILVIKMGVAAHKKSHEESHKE

“PIF15 affinity resin (Cys-C6 spacer-PIF15 conjugated to agarose) (peptide)” was tested, and the Ave [1] was 2, the Inject 1 [1] was 2 and the Inject 2 [1] was 2. The Inject 3 [1] was 2, the Ave [2] was 3 and the Inject 1 [2] was 3. For the same substance, the Inject 2 [2] was 3, the Inject 3 [2] was 3 and the Ave [3] was 3. The Inject 1 [3] was 3, the Inject 2 [3] was 3 and the Inject 3 [3] was 3. It also gave an Ave [4] of 2, an Inject 1 [4] of 2 and an Inject 2 [4] of 2. For the same substance, the Inject 3 [4] was 2, the Ave [5] was 2 and the Inject 1 [5] was 2. It also gave an Inject 2 [5] of 2, an Inject 3 [5] of 2 and an Ave [6] of 2. It also gave an Inject 1 [6] of 2, an Inject 2 [6] of 2 and an Inject 3 [6] of 2. For the same substance, the Ave [7] was 3, the Inject 1 [7] was 3 and the Inject 2 [7] was 3. The Inject 3 [7] was 3, the Ave [8] was 4 and the Inject 1 [8] was 4. It also gave an Inject 2 [8] of 3, an Inject 3 [8] of 4 and an Ave [9] of 7. For the same substance, the Inject 1 [9] was 6, the Inject 2 [9] was 7 and the Inject 3 [9] was 7. For the same substance, the Ave [10] was 6, the Inject 1 [10] was 7 and the Inject 2 [10] was 4. For the same substance, the Inject 3 [10] was 6, the Ave [11] was 1 and the Inject 1 [11] was 1. It also gave an Inject 2 [11] of 0, an Inject 3 [11] of 2 and an Ave [12] of 3. The Inject 1 [12] was 3, the Inject 2 [12] was 2 and the Inject 3 [12] was 3. The Ave [13] was 1, the Inject 1 [13] was 0 and the Inject 2 [13] was 1. The Inject 3 [13] was 2, the Ave [14] was 2 and the Inject 1 [14] was 2. For the same substance, the Inject 2 [14] was 2, the Inject 3 [14] was 2 and the Ave [15] was 3. It also gave an Inject 1 [15] of 4, an Inject 2 [15] of 4 and an Inject 3 [15] of 2. For the same substance, the Ave [16] was 3, the Inject 1 [16] was 3 and the Inject 2 [16] was 3. The Inject 3 [16] was 4, the Ave [17] was 2 and the Inject 1 [17] was 4. For the same substance, the Inject 2 [17] was 2, the Inject 3 [17] was 1 and the Ave [18] was 1. It also gave an Inject 1 [18] of 1, an Inject 2 [18] of 2 and an Inject 3 [18] of 1. It also gave an Ave [19] of 2, an Inject 1 [19] of 2 and an Inject 2 [19] of 2. It also gave an Inject 3 [19] of 2, an Ave [20] of 2 and an Inject 1 [20] of 2. The Inject 2 [20] was 1, the Inject 3 [20] was 2 and the Ave [21] was 7. The Inject 1 [21] was 7, the Inject 2 [21] was 5 and the Inject 3 [21] was 8. For the same substance, the Ave [22] was 5, the Inject 1 [22] was 5 and the Inject 2 [22] was 5. For the same substance, the Inject 3 [22] was 4, the Ave [23] was 8 and the Inject 1 [23] was 8. It also gave an Inject 2 [23] of 7, an Inject 3 [23] of 8 and an Ave [24] of 10. For the same substance, the Inject 1 [24] was 9, the Inject 2 [24] was 11 and the Inject 3 [24] was 9.
